These results are taken from publication PMC4527729, “The Inner Membrane Protein PilG Interacts with DNA and the Secretin PilQ in Transformation”.

In series [1] the target is PilG FL (Neisseria meningitidis MC58) (UniProt Q7DDR1). The experiment in a line: EMSA. The conditions noted are these: Optimized EMSA: 50 mM HEPES pH 7.5, 100 mM NaCl, 5 mM MgCl2, 1 mM DTT, 10% glycerol, 0.05% DDM, on ice 15 min, 0.45 nM DNA; first EMSA: 25 mM NaH2PO4 pH 8.0 …. A general note: A gel shift assay detects complexes by their altered migration in electrophoresis.

For the next series, the target named is PilG SS62-63AA (Neisseria meningitidis MC58, UniProt Q7DDR1 1-410, S62A;S63A). The experiment in a line: South-western; same as FL; Optimized EMSA: 50 mM HEPES pH 7.5, 100 mM NaCl, 5 mM MgCl2, 1 mM DTT, 10% glycerol, 0.05% DDM, on ice 15 min, 0.45 nM DNA; first EMSA: 25 mM NaH2PO4 pH 8.0, 150 mM NaCl, 1 mM DTT, 10% glycerol, 0.05% DDM, on ice. To be noted: protein: recombinant; tags: C-terminal 6xHis; label: 32P end label.

In another series the target is PilG Q55A (Neisseria meningitidis MC58, UniProt Q7DDR1 1-410, Q55A). The description is as above. To be noted: protein: recombinant; tags: C-terminal 6xHis; label: 32P end label.
For the next series, the target named is PilG257-410 (Neisseria meningitidis MC58, UniProt Q7DDR1 257-410). The experiment in a line: South-western; Optimized EMSA: 50 mM HEPES pH 7.5, 100 mM NaCl, 5 mM MgCl2, 1 mM DTT, 10% glycerol, 0.05% DDM, on ice 15 min, 0.45 nM DNA; first EMSA: 25 mM NaH2PO4 pH 8.0, 150 mM NaCl, 1 mM DTT, 10% glycerol, 0.05% DDM, on ice. The conditions noted are these: protein: recombinant, tags: C-terminal 6xHis, label: 32P end label.

In another series the target is PilG1-80 (Neisseria meningitidis MC58, UniProt Q7DDR1 1-80). The series is described as above. The conditions noted are these: protein: recombinant, tags: C-terminal 6xHis, label: 32P end label.
The target in the next series is PilG166-410 (Neisseria meningitidis MC58, UniProt Q7DDR1 166-410). Described as above. The conditions noted are these: protein: recombinant, tags: C-terminal 6xHis, label: 32P end label.
Another series addresses PilG1-256 (Neisseria meningitidis MC58, UniProt Q7DDR1 1-256). Described as above. To be noted: protein: recombinant, tags: C-terminal 6xHis, label: 32P end label.
Another series addresses PilG30-80 (Neisseria meningitidis MC58, UniProt Q7DDR1 30-80). Described as above. To be noted: protein: recombinant, tags: C-terminal 6xHis, label: 32P end label.
For a further series, the target named is PilG1-140 (Neisseria meningitidis MC58, UniProt Q7DDR1 1-140). Described as above. The conditions noted are these: protein: recombinant, tags: C-terminal 6xHis, label: 32P end label.
Series [2] concerns the target T1, PilG FL (Neisseria meningitidis MC58, UniProt Q7DDR1 1-410). Described as above. The conditions noted are these: protein: recombinant, tags: C-terminal 6xHis, label: 32P end label.
A further series addresses PilG1-60 (Neisseria meningitidis MC58, UniProt Q7DDR1 1-60). The description is as above. To be noted: protein: recombinant, tags: C-terminal 6xHis, label: 32P end label.
Series [3] deals with T2, PilG1-178 (Neisseria meningitidis MC58, UniProt Q7DDR1 1-178). The series is described as above. To be noted: protein: recombinant, tags: C-terminal 6xHis, label: 32P end label.
The target of another series is PilG EEE39-41AAA (Neisseria meningitidis MC58, UniProt Q7DDR1 1-410, E39A;E40A;E41A). Nature of the series: South-western; increased vs FL per text; Optimized EMSA: 50 mM HEPES pH 7.5, 100 mM NaCl, 5 mM MgCl2, 1 mM DTT, 10% glycerol, 0.05% DDM, on ice 15 min, 0.45 nM DNA; first EMSA: 25 mM NaH2PO4 pH 8.0, 150 mM NaCl, 1 mM DTT, 10% glycerol, 0.05% DDM, on ice. The conditions noted are these: protein: recombinant; tags: C-terminal 6xHis; label: 32P end label.

Series [4] deals with T1, PilG FL. Nature of the series: EMSA; optimized EMSA; R2 0.91?; Optimized EMSA: 50 mM HEPES pH 7.5, 100 mM NaCl, 5 mM MgCl2, 1 mM DTT, 10% glycerol, 0.05% DDM, on ice 15 min, 0.45 nM DNA; first EMSA: 25 mM NaH2PO4 pH 8.0, 150 mM NaCl, 1 mM DTT, 10% glycerol, 0.05% DDM, on ice. The conditions noted are these: protein: recombinant; tags: C-terminal 6xHis; label: 32P end label.

For the next series, the target named is PilG RKK43-45AAA (Neisseria meningitidis MC58, UniProt Q7DDR1 1-410, R43A;K44A;K45A). Nature of the series: EMSA; extrapolated; about 50% bound at 5 uM per text; Optimized EMSA: 50 mM HEPES pH 7.5, 100 mM NaCl, 5 mM MgCl2, 1 mM DTT, 10% glycerol, 0.05% DDM, on ice 15 min, 0.45 nM DNA; first EMSA: 25 mM NaH2PO4 pH 8.0, 150 mM NaCl, 1 mM DTT, 10% glycerol, 0.05% DDM, on ice. The conditions noted are these: protein: recombinant; tags: C-terminal 6xHis; label: 32P end label.

Series [5] deals with T2, PilG1-178. Nature of the series: EMSA; 5 mM MgCl2; Optimized EMSA: 50 mM HEPES pH 7.5, 100 mM NaCl, 5 mM MgCl2, 1 mM DTT, 10% glycerol, 0.05% DDM, on ice 15 min, 0.45 nM DNA; first EMSA: 25 mM NaH2PO4 pH 8.0, 150 mM NaCl, 1 mM DTT, 10% glycerol, 0.05% DDM, on ice. The conditions noted are these: protein: recombinant; tags: C-terminal 6xHis; label: 32P end label; blunt.

For the molecule 52 bp dsDNA, S3 Fig, the Kd in [1] amounted to 300 nM.

B1: T1 (ssDNA)
DNA: CAACAACAACAACAGCCGTCTGAACCAAATTCAGACGGCAACAACAACAACA
Take B1: the binding result with PilG SS62-63AA was “binds”; in the series with PilG Q55A, “binds”; with PilG257-410, “no binding”; in the series with PilG1-80, “binds”; in the series with PilG166-410, “no binding”; in the series with PilG1-256, “binds”. For the same molecule, the binding result is “no binding” with PilG30-80; “binds” in the series with PilG1-140; “binds” in the series with PilG FL [2]; “no binding” in the series with PilG1-60; “binds” in the series with PilG1-178 [3]; “binds” with PilG EEE39-41AAA.

B2: T1T2 (dsDNA)
DNA 1: B1 DNA
DNA 2: TGTTGTTGTTGTTGCCGTCTGAATTTGGTTCAGACGGCTGTTGTTGTTGTTG
Regarding B2, the binding result is recorded as “no binding” with PilG257-410 (blunt); “binds” with PilG1-80 (blunt); “no binding” with PilG166-410 (blunt); “binds” with PilG1-256 (blunt); “no binding” with PilG30-80 (blunt); “binds” with PilG1-140 (blunt). Further, the binding result is “binds” in the series with PilG FL [2] (blunt), “no binding” with PilG1-60 (blunt) and “binds” with PilG1-178 [3] (blunt).

B3: HH8 (ssDNA)
DNA: GTTGTTGTTGTTTTCAGACGGCATGTTGGTTCAGACGGCATTTGTTGTTGTT
With B3, the results for the “apparent K (half saturation)” value with PilG FL [4] and with PilG RKK43-45AAA were 1160 nM and about 15.7 mM, respectively. The binding result is “no binding” with PilG257-410; “no binding” in the series with PilG166-410; “no binding” with PilG30-80; “no binding” with PilG1-60; “binds” in the series with PilG EEE39-41AAA.

B4: T3 (ssDNA)
DNA: CAACAACAACAACAGGCCTGTCATCCAAAATGACAGGCCAACAACAACAACA
On to B4, for which the binding result with PilG257-410 is listed as “no binding”; in the series with PilG1-80, “binds”; with PilG166-410, “no binding”; with PilG1-256, “binds”; with PilG30-80, “no binding”; with PilG1-140, “binds”. Moreover, the binding result with PilG FL [2] was “binds”; in the series with PilG1-60, “no binding”; with PilG1-178 [3], “binds”.

B5: T3T4 (dsDNA)
DNA 1: B4 DNA
DNA 2: TGTTGTTGTTGTTGGCCTGTCATTTTGGATGACAGGCCTGTTGTTGTTGTTG
Turning to B5, the binding result with PilG257-410 (blunt) is “no binding”; with PilG1-80 (blunt), “binds”; in the series with PilG166-410 (blunt) it was “no binding”; with PilG1-256 (blunt) it was “binds”; with PilG30-80 (blunt) it was “no binding”; in the series with PilG1-140 (blunt), “binds”. The results for the binding result with PilG FL [2] (blunt), in the series with PilG1-60 (blunt) and in the series with PilG1-178 [3] (blunt) were “binds”, “no binding” and “binds”, respectively.

B6: HH10HH11 (dsDNA DUS-) (dsDNA)
DNA 1: AACAACAACAAAAGGCCTGTCATCCAACTTCCGGACAGTAAACAACAACAAC
DNA 2: GTTGTTGTTGTTTACTGTCCGGAAGTTGGATGACAGGCCTTTTGTTGTTGTT
Take B6: the “apparent K (half saturation)” value in the series with PilG1-178 [5] was 269 nM.

By Kd is commonly meant the equilibrium constant for the complex coming apart.
